{"source": "paper PMC3753655", "biological_target": "His6-MS2 coat protein (bacteriophage MS2) (UniProt P03612)", "assay": "SEC; Superose 6 (10/300 GL); supernatants of crude cell extracts of E. coli JM101 expression cultures; 50 mM Tris-HCl pH 7.5, 300 mM NaCl; with or without benzonase treatment; reference proteins 669, 400 and 29 kDa", "data": [{"substance": "His6-MS2 coat protein (from UniProt P03612 1-130) (natural protein)", "values": [{"measurement": "stoichiometry N", "value": 2}]}]}
